{"source": "patent US20140234868A1", "about": "“USE FOR GLYCOLIPOPROTEIN GINTONIN, ISOLATED AND IDENTIFIED FROM GINSENG, AS A NATURAL MEDICAL-PLANT DERIVED LIGAND” (KONKUK UNIVERSITY INDUSTRIAL COOPERATION CORP., priority 2011, published 2014)", "molecules": {"B1": {"name": "gintonin: ginseng-derived glycolipoprotein; structural protein of ginseng major latex-like protein (MLP151) and ribonuclease-like storage proteins; crude gintonin used in tests (protein)", "chain 1": "MGLTGKLICQTGIKSDGDVFHELFGTRPHHVPNITPANIQGCDLHEGEFGKVGSVVIWNYSIDGNAMIAKEEIVAIDEEDKSVTFKVVEGHLFEEFKSIVFSVHVDTKGEDNLVTWSIDYEKLNESVKDPTSYLDFLLSVTRDIEAHHLPK", "chain 2": "RSDYPWAMFALRLQWPAGFCEVNNACDTKSLLNTFTIHGLYPYNAKGTPALYCDGTAFDVNSVSDFLAEMHLAWPSHETNTEDIQFWEHEWKKHGRCSEALLKQTDYFRTALAFRKAFDIVGLLNQEGIYPNNDLYRPKMIKEAIKKHLNAVPEIDFTKNENSEYVLTDINVCVNQQATRFVDCPTDDATDDYRLKFVRLPSKMKFADPRTNSII"}}, "key": {"[1]": {"target": "T1, mutant R3.28A LPA3 receptor (Homo sapiens, UniProt Q9UBY5, R105A)", "T1 construct": "expressed in transfected cells; host or cells: B103 rat neuroblastoma cells", "T1 sequence (Q9UBY5 1-353 R105A)": "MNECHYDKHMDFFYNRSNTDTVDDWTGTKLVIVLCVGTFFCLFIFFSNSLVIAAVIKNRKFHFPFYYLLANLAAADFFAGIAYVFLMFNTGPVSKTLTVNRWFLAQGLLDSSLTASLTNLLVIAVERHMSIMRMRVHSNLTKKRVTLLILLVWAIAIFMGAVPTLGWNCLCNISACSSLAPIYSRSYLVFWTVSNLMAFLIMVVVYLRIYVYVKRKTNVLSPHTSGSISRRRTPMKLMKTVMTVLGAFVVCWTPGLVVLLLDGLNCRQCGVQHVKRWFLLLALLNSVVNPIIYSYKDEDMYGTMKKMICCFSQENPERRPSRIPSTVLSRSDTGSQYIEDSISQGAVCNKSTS", "test": "Intracellular Ca2+ in B103 cells with mutant R3.28A LPA3 receptor", "type": "cell-based", "details": "R3.28A LPA3 receptor-transfected B103 cells", "text": "That is, LPA receptors have specific amino acid residues, known as binding sites, which are responsible for interaction with LPA, and the binding of LPA to the specific amino acids starts to exert the function. This Example was configured to examine a change in the gintonin-induced intracellular calcium increase through LPA receptor activation in LPA3 receptor-expressing cells when specific amino acids of the LPA binding site in LPA receptors were mutated.\nTo this end, a mutant LPA receptor in which Arg3.28, known as a common LPA binding site of LPA1-LPA3 receptors, was mutated as Arg3.28Ala (that is, Arg is substituted by Ala; R3.28A) or Trp4.64, known as an LPA-binding site of LPA3 receptor was mutated as Trp4.64Ala (that is, Tip is substituted by Ala; W4.64A) (Valentine et al., J. Biol. Chem. 283, 12175-12187, 2008) was transfected to B103 cells which were then tested for the action of gintonin, in comparison with cells transfected with the wild-type. […] From the result, it is henceforth understood that the gintonin-triggered LPA receptor activation is achieved by interaction with the LPA binding sites of LPA receptors and that gintonin occupies the LPA binding sites to activate LPA receptors."}, "NMDA receptor": {"tested_on": "NMDA receptor", "test": "NMDA receptor activity in oocytes expressing active or inactive RPTP alpha", "type": "cell-based", "details": "oocytes expressing active or inactive RPTP α", "description": "Two-electrode voltage-clamp recordings were obtained from individual oocytes placed in a small Plexiglas net chamber (5 ml). Electrophysiological experiments were performed using microelectrodes filled with 3 M KCl (resistance of 0.2-0.7 MΩ) and an Oocyte Clamp amplifier (OC-725C; Warner Instrument, Hamden, Conn.). For physiological recordings of NMDA receptor activity, oocytes were first perfused with Mg^2+-free ND96 (mM: 96 NaOH, 2 KOH, 0.3 CaCl2, 5 HEPES pH 7.6 with methanesulfonic acid). Then, the oocytes were clamped at −60 mV holding potential, followed by recoding NMDA currents (induced by administering […]) (Zheng et al., J Neurosci. 17, 8676-8686, 1997; Chang and Kuo, J Neurosci. 28, 1546-1556, 2008)."}}, "data": [{"molecule": "B1", "values": [{"measurement": "gintonin-induced intracellular calcium increase vs wild-type", "setting": "[1]", "result": "greatly reduced"}, {"measurement": "NMDA receptor activity when treated with gintonin", "setting": "NMDA receptor", "result": "NMDA receptor activity at a low level"}]}]}
